The values that follow are results of earlier work, collected in patent publication US20210338656A1, “IMMUNOSTIMULATORY AGENTS IN COMBINATION WITH ANGIOGENESIS INHIBITORS” (Alkermes Pharma Ireland Limited, priority 2020, published 2021).

The subject of this data set is CD8+ T cells, NK cells, Tregs. The following applies: human patients; cited from earlier work.

B1: fusion protein of SEQ ID NO: 1: circularly permuted (cp) IL-2 variant fused to the extracellular domain of the IL-2Rα portion of the IL-2 receptor (protein)
chain: SKNFHLRPRDLISNINVIVLELKGSETTFMCEYADETATIVEFLNRWITFSQSIISTLTGGSSSTKKTQLQLEHLLLDLQMILNGINNYKNPKLTRMLTFKFYMPKKATELKHLQCLEEELKPLEEVLNLAQGSGGGSELCDDDPPEIPHATFKAMAYKEGTMLNCECKRGFRRIKSGSLYMLCTGNSSHSSWDNQCQCTSSATRNTTKQVTPQPEEQKERKTTEMQSPMQPVDQASLPGHCREPPPWENEATERIYHFVVGQMVYYQCVQGYRALHRGPAESVCKMTHGKTRWTQPQLICTG
modifications: Human cpIL-2IL-2R-alpha
notes: circularly permuted (cp) IL-2 variant fused to the extracellular domain of the IL-2Rα portion of the IL-2 receptor
In the case of B1, the “activation of T regs” value is recorded as “absence of dose dependent activation”; the “expansion of CD8+ T cells and NK cells” value is listed as “in a dose dependent manner”; the “relative expansion of immunosuppressive Tregs as compared to high dose rhIL-2” value is “at least two fold less”.
